Test results reported in US20220403048A1 (CANCER RESEARCH TECHNOLOGY, published 2022).

T1: biotinylated recombinant human trimeric ARG1 enzyme (Avi-huARG1-His10) (human, UniProt P05089 1-322, biotinylated in HTRF and streptavidin BLI assays)
T1 construct: also called Human ARG1; recombinant ARG1
T1 sequence: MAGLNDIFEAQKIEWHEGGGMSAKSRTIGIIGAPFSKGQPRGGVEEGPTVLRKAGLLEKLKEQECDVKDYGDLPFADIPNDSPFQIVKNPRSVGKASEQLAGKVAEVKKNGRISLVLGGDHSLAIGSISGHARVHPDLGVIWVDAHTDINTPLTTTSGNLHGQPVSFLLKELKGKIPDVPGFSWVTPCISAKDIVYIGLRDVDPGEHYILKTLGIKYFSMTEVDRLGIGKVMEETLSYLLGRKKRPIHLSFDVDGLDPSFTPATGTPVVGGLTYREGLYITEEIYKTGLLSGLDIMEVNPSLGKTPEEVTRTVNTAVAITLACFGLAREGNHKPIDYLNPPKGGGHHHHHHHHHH

T2: biotinylated recombinant human trimeric ARG2 enzyme (Avi-huARG2-His10) (human, UniProt P78540 23-354, biotinylated)
T2 construct: also called avi-Arg2-His10; bio-ARG2
T2 chain: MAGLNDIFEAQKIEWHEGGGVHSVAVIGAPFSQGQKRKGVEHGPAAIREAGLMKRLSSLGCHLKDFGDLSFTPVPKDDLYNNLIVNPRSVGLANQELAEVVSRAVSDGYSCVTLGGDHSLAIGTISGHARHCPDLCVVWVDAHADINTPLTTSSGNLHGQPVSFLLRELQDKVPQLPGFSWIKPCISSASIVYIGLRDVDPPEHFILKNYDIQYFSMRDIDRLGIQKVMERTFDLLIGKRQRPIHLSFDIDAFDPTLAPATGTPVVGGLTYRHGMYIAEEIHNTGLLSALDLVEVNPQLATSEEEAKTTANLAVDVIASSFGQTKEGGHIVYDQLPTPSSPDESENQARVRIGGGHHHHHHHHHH

T3: biotinylated recombinant cynomolgus monkey trimeric ARG2 enzyme (Avi-cynoARG2-His10) (cynomolgus monkey, UniProt P78540 23-354 (human entry), biotinylated)
T3 construct: also called cynomolgus ARG2
T3 chain: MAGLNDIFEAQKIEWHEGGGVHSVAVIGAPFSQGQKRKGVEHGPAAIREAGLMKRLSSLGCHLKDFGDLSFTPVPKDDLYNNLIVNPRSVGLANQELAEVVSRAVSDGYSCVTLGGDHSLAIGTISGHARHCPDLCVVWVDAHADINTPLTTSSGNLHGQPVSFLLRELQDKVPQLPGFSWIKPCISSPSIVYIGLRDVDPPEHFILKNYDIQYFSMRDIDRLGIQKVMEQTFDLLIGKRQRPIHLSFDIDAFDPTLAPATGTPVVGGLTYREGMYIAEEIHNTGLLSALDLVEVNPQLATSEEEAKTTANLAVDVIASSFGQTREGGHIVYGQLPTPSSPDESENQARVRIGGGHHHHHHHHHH

T4: recombinant human trimeric ARG2 enzyme (construct not given) (human, UniProt P78540 23-354)
T4 sequence (looked up): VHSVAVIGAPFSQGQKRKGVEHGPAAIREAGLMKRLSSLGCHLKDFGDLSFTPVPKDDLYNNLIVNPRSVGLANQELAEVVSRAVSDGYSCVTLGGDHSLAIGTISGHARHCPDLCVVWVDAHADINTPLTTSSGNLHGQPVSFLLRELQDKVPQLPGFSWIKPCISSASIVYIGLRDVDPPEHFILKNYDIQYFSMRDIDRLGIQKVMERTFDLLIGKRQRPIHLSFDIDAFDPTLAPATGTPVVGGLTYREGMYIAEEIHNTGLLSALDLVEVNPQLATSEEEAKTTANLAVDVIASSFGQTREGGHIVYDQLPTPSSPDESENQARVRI


Key:
[1] = target: T1, biotinylated recombinant human trimeric …; assay: HTRF direct binding assay, biotinylated recombinant human trimeric ARG1
[2] = target: T2, biotinylated recombinant human trimeric …; assay: HTRF direct binding assay, biotinylated recombinant human trimeric ARG2, streptavidin cryptate and anti-c-myc-XL665, % Delta F
Protocol: In this assay, binding of unpurified scFv to recombinant human trimeric ARG2 enzyme was assessed by measuring the fluorescence resonance energy transfer (FRET) between the c-myc tagged scFv and the biotinylated enzyme using streptavidin cryptate and anti-c-myc-XL665 detection reagents (CisBio International, France; cat: 610SAKLB and 61 MYCXLB respectively). Selection outputs were screened as unpurified bacterial periplasmic extracts containing scFv, prepared in 200 mM tris buffer pH 7.4, 0.5 mM EDTA and 0.5 M sucrose. 5 μl of unpurified scFv samples were added to a Greiner® 384 well assay plate (Greiner Bio-one, UK; cat: 784076). This was followed by the addition of 5 μl of 12 nM recombinant human trimeric ARG2 enzyme, 5 μl of 6.67 nM streptavidin cryptate and 5 μl 40 nM anti-c-myc-XL665. […] Assay plates were incubated overnight at 4° C. prior to reading time resolved fluorescence on a Pherastar plate reader ([…]) using an excitation wavelength of 320 nm and measuring the emission at 620 nm and 665 nm (100 flashes).
The ARG2 binding profile of each purified scFv was determined by testing a dilution series of the purified scFv in the HTRF™ assay described in section 1.4, substituting the unpurified scFv periplasmic preparation with the purified scFv. […]

[3] = target: T3, biotinylated recombinant cynomolgus …; assay: HTRF direct binding assay, biotinylated recombinant cynomolgus trimeric ARG2, streptavidin cryptate and anti-c-myc-XL665, Delta F %
[4] = target: T2, biotinylated recombinant human trimeric …; assay: HTRF epitope competition, scFv titrated, competitor C0020187 IgG, on biotinylated human trimeric ARG2
[5] = target: T4, recombinant human trimeric ARG2 enzyme …; assay: cell-based or functional assay
[6] = target: T3, biotinylated recombinant cynomolgus …; assay: BLI (OctetRED), biotinylated ARG on streptavidin tip, Fab as analyte, 1:1 fit
Protocol: (§1) An Octet Kinetics Buffer (PBS containing 0.01% BSA and 0.002% Tween20) is typically used as the diluent buffer for the analyte samples and as the flow buffer during the dissociation phase. The experimental data is recorded over time as shift in interference pattern (nm) over time, which is directly proportional to the optical thickness at the biosensor tip, which in turn is an approximate measure of the mass of analyte bound. The proprietary Octet Data Analysis software package can then be used to process data and fit binding models to the data sets. Returned association (kₐ, M⁻¹ s⁻¹) and dissociation (kd, s⁻¹) rate constants allow calculation of dissociation (KD, M) affinity constants.
(§2) The affinity of binding between the Fab of C0020187 and human ARG2, cynomolgus ARG2 and human ARG1 was estimated using assays in which the biotinylated ARG antigen was captured on a streptavidin sensor tip. A fresh sensor tip was used for each measurement and no regeneration was used. A series of dilutions of the C0020187 Fab (3.25-240 nM) were individually placed in contact with the ligand surface for a sufficient amount of time to observe sensorgrams that could be fitted to an appropriate binding model with confidence (typically 5 minutes), followed by an appropriate length of dissociation time (typically 10 minutes). Blank reference (0 nM Fab) data were subtracted from each dataset to reduce the impact of any buffer artefacts or non-specific binding effects. An appropriate binding model was then fitted simultaneously to the data from each analyte titration using the Octet Evaluation software.
(§3) Example results for C0020187 are shown in Table 9, showing the association rate constants (kₐ), dissociation rate constants (kd) and dissociation constants (KD). These parameters were derived from a 1:1 binding fit to the data.

[7] = target: T2, biotinylated recombinant human trimeric …; assay: as above
Protocol: as §1, §2, §3

[8] = target: T1, biotinylated recombinant human trimeric …; assay: BLI (OctetRED), biotinylated ARG1 on streptavidin tip
Protocol: as §2

Row | binding result [1] | EC50 (read off the curve) [2] [nM] | EC50 (read off the curve) [3] [nM] | IC50 [4] [nM] | Trimeric human ARG2 EIA IC50 [5] [nM] | Kd [6] [nM] | koff [6] [s⁻¹] | kon [6] [M⁻¹ s⁻¹] | Kd [7] [nM] | koff [7] [s⁻¹] | kon [7] [M⁻¹ s⁻¹] | binding result [8] | Binder
1 | no binding (tested: log M -6 (1e-6 M)) | ~20 | ~10 | 1580 | 964 |  |  |  |  |  |  |  | C0020187 scFv (scFv, V domains shown, c-myc tagged scFv; also called parent C0020187 scFv) VH: not shown VL: QSVLTQPPSVSAAPGQKVTISCSGSSSNIGNHYVSWYQQLPGTAPKLLIYDNSERPSGIPDRFSGSKSGTSATLGITGLQTGDEADYYCGTWDSSLSALVFGGGTKLTVL
2 |  |  |  |  |  | 6.26 | 0.000631 | 101000 | 8.35 | 0.000577 | 69200 | no binding (tested: 3.25-240 nM Fab) | C0020187 Fab (Fab, V domains shown, Human Fab (CH1 and part of the hinge; light chain constant domain); also called Fab of C0020187) VH: not shown VL: QSVLTQPPSVSAAPGQKVTISCSGSSSNIGNHYVSWYQQLPGTAPKLLIYDNSERPSGIPDRFSGSKSGTSATLGITGLQTGDEADYYCGTWDSSLSALVFGGGTKLTVL
